System: MS2 coat protein
Test: apparent KD of MS2 coat protein; designed switch direction (-1 OFF switch, 1 ON switch): -1; higher = weaker reporter binding
In short: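 Designed RNA switches sharing common flanks were transcribed on Illumina chips by stalled E. coli RNA polymerase. They were titrated with SNAP-549-labelled MS2 coat protein, from 0.7 or 1.5 nM doubling to 3 µM, in Tris-HCl pH 7.5 buffer with KCl, MgCl2, BSA, DTT, tRNA and Tween-20. Titrations ran without input, with 200 uM small-molecule ligand, or with an oligonucleotide input. The apparent KD of each design is the median over its clusters, after curve-fitting of normalised cluster fluorescence.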

[1] = Eterna round: R95, input ligand: FMN 200 uM
[2] = Eterna round: R95, input ligand: microRNA oligo, concentration not stated
[3] = Eterna round: R95, input ligand: none

AGUAGGAGAGGAUAUACGAAGUCAAAAGACUUCAAUACUCAACAUGAGGAUCACCCAUGUAGAAGGCUCCUACA [Omei Ex2 BD A4] (Eterna round: R97, puzzle: Exclusion 2)
apparent KD of MS2 coat protein (input ligand: FMN 200 uM): 22.9 nM
apparent KD of MS2 coat protein (input ligand: none): 19.4 nM

AGUAGGUCUACCUUGGUGGAUCUGCAUUUAAGCAGGUGUACAUGAGGAUCACCCAUGUCCUCAUUUGCUCGUCUUAU [JL turnoff v2 99.30] (puzzle: Sensor v3, turn-off variant 2)
apparent KD of MS2 coat protein [1]: 453 nM
apparent KD of MS2 coat protein [2]: 342 nM
apparent KD of MS2 coat protein [3]: 492 nM

AGUCCAGAUGUUAGGAUAUGCAACUAGCCAUUGUAGCAGAAGGAACAUGAGGAUCACCCAUGUACAAAGACCCG [Edgeraer] (puzzle: Brourd's mod of Exclusion 4)
apparent KD of MS2 coat protein [1]: 47.4 nM
apparent KD of MS2 coat protein [2]: 13.4 nM
apparent KD of MS2 coat protein [3]: 11.3 nM

AGUCGAAAGAACCACAUGGACAUGAGGAUCACCCAUGUGCAAGCCUUUUUCUCGUCACUAUCGUCAAAAGACGAUAG [Omei Mir Offv1 A5] (Eterna round: R97, puzzle: Sensor, turn-off variant 1)
apparent KD of MS2 coat protein (input ligand: FMN 200 uM): 168 nM
apparent KD of MS2 coat protein (input ligand: none): 227 nM

AGUCGUAGACAGGAUAUGCGGCUAAUAAAUAAAGCAGAAGGGUCUACUUGAGGAUCACCCAAGUGGGCGGUCUG [jl-ex6-4.22 ViennaUCT mod] (Eterna round: R97, puzzle: Exclusion 6)
apparent KD of MS2 coat protein (input ligand: FMN 200 uM): 64.9 nM
apparent KD of MS2 coat protein (input ligand: none): 16.9 nM

AGUGAACAUGAGGAUCACCCAUGUUAGGAUAUGUAUAAUCGACGAGCCUUUUCGUCGGGCAGAAGGGAUGGUGA [Eternabot (L2) Solution 95] (Eterna round: R97, puzzle: Exclusion 1)
apparent KD of MS2 coat protein (input ligand: FMN 200 uM): 44.7 nM
apparent KD of MS2 coat protein (input ligand: none): 41.6 nM

AGUGCGUAUGUGAGGAUAUGCUGGUCCUUGGAUCGGCAGAAGGCACAUGAGGAUCACCCAUGUGGUGUCGUACC [salish99_Bmod_ex4_076] (puzzle: Brourd's mod of Exclusion 4)
apparent KD of MS2 coat protein [2]: 136 nM

AGUGUCUUAGGAUAUACAUGAGGAUCACCCAUGUUAACAUUCCUUCGCGGUAUCGCAUGUAGAAGGAGGAUAUG [Eternabot (L1) Solution 68] (Eterna round: R97, puzzle: Exclusion 3)
apparent KD of MS2 coat protein (input ligand: FMN 200 uM): 33.1 nM
apparent KD of MS2 coat protein (input ligand: none): 26.8 nM

AGUGUGAGGCAGGAUAUGCUAUAUGUAAGUAAUGCAGAAGGGUCUACAUGAGGAUCACCCAUGUGUGCGGUUGA [Ex6 #9] (Eterna round: R97, puzzle: Exclusion 6)
apparent KD of MS2 coat protein (input ligand: FMN 200 uM): 797 nM
apparent KD of MS2 coat protein (input ligand: none): 116 nM

AGUGUGUGGCAGGAUAUUCUAAUCGUGAGUAGGGAAGAAGGGUCUACAUGAGGAUCACCCAUGUAAGCGGUUGA [Ex6 #43] (Eterna round: R97, puzzle: Exclusion 6)
apparent KD of MS2 coat protein (input ligand: FMN 200 uM): 257 nM
apparent KD of MS2 coat protein (input ligand: none): 209 nM

AGUGUGUGGCAGGAUAUUCUAAUCUUUAGGAGGGAAGAAGGGUCUACAUGAGGAUCACCCAUGUAAGCGGUUGA [Ex6 #40] (Eterna round: R97, puzzle: Exclusion 6)
apparent KD of MS2 coat protein (input ligand: FMN 200 uM): 221 nM
apparent KD of MS2 coat protein (input ligand: none): 75.3 nM

AGUGUGUGGCAGGAUAUUCUGUUGGUUCGGACAGAAGAAGGGUCUACAUGAGGAUCACCCAUGUAAGCGGUUGA [Ex6 #34] (Eterna round: R97, puzzle: Exclusion 6)
apparent KD of MS2 coat protein (input ligand: FMN 200 uM): 173 nM
apparent KD of MS2 coat protein (input ligand: none): 264 nM

AGUUCAAGGAAUUCUUCUGACAUGAGGAUCACCCAUGUGCUUUGCAAGUGUUGCUCGUCGCCUAGAACGUUAAGUAA [Eternabot (Original) Solution 32] (Eterna round: R97, puzzle: Sensor, turn-off variant 1)
apparent KD of MS2 coat protein (input ligand: FMN 200 uM): 158 nM
apparent KD of MS2 coat protein (input ligand: none): 225 nM

AGUUGUUGCGCAGGAUAUGAGGAUCACCCAUAGUAGGAUAUCGAAAGGGAAGGACUGAGGAUUACCCAGAAGGGCGUGAUGACA [pwkr exNG2 2xF5 2xFMN.7] (Eterna round: R96, puzzle: Exclusion NG 2)
apparent KD of MS2 coat protein (input ligand: FMN 200 uM): 1530 nM
apparent KD of MS2 coat protein (input ligand: microRNA oligo, concentration not stated): 292 nM
apparent KD of MS2 coat protein (input ligand: none): 302 nM

Source: the supplement of paper PMC9170038
